Assay [1] addresses full-length human PD-L1 on K562 cells (human) (UniProt Q9NZQ7). In words: FACS, PD-L1/K562 cells. For orientation: Flow cytometry measures light scatter and fluorescence of single cells or particles in a stream.
Assay [2] concerns the target human PD-L1-Fc (human) (UniProt Q9NZQ7). The assay is described as follows: ELISA, coated PD-L1-Fc, anti-FLAG HRP. (In general: An ELISA detects its analyte on a solid surface through an enzyme-linked reagent.)
Assay [3] deals with PD-L1 on PD-L1 aAPC/CHOK1 cells (Promega J1250). In words: cell-based or functional assay.
The target of assay [4] is human PD-L1-Fc (human) (UniProt Q9NZQ7). The assay is described as follows: SPR, PD-L1-Fc captured, scFv analyte.
Assay [5] deals with PD-L1 biotinylated (PD-1/PD-L1 TR-FRET assay kit, BPS 72038) (Homo sapiens (Human)) (UniProt Q9NZQ7). In words: HTRF competition, competitor PD-1-Eu. Background: TR-FRET usually uses a lanthanide donor and a delayed reading to cut background.

B1: 2018EP161-F04 scFv (scFv, part only; not given: linker and tags, not shown: small tags and cut ends)
scFv, part: QMQLVQSGAEVKKPGATVKISCKVSGYTFTDYYMHWVQQAPGKGLEWMGLVDPEDGETIYAEKFQGRVTITADTSTDTAYMELSSLRSEDTAVFYCATDGSGSYYLTLGQGTLVTVSSNFMLTQPSSLSASPGASASLTCTLPSGINVGPYGIFWYQQKPGSPPQYLLRYKSNSENHQGSGVPSRFSGSEDASANVGILLISGLQSEDEADYYCMIWHSSAWVFGGGTKVTVL
Regarding B1, the EC50 in assay [1] came out at 5.8 nM.

B2: 2018EP164-F04 scFv (scFv, part only; not given: linker and tags, not shown: small tags and cut ends)
scFv, part: QVQLQQWGAGLLKPSETLSLTCAVYGGSFSGYYWSWIRQPPGKGLEWIGEINHSGSTNYNPSLKSRVTISVDTSKNQFSLKLSSVTAADTAVYYCARGRRLRYFDWAAYNWFDPWGQGTLVTVSSQSALTQDPAVSVALGQTVRITCQGDSLRSHYASWYQQKPGQAPVVVVYDNSDRPSGIPDRFSGSNSGNTATLTISRVEVGDEADYYCQVWDSSSDHYVFGTGTKV
With B2, in the assay with human PD-L1-Fc (human) [2], the EC50 stood at 1.27 nM. For the same molecule, the Jurkat NFAT reporter assay EC50 in assay [3] is 129 nM. In the assay with human PD-L1-Fc (human) [4], this molecule registered a Kd of 2.94 nM, a koff of 0.000722 s⁻¹ and a kon of 245000 M⁻¹ s⁻¹. In assay [5], this molecule returned an IC50 of 173 nM.

Broadly, the EC50 is the concentration that produces a half-maximal response. Read a low EC50 as higher potency in that assay. The term Kd denotes the equilibrium constant for the complex coming apart. Low readings indicate a tighter complex, high ones a looser complex. What is called koff is a measure of how fast the partners let go of each other. One may read the kon as the second-order rate constant of association. For orientation: IC50 means the concentration needed to halve the response being measured. Low readings indicate greater potency, high ones weaker potency.
